T1: mouse MST1R with N-terminal Flag tag, expressed on HEK293T cells (mouse, UniProt Q62190 24-1378)
T1 construct: ORF cloned excluding the signal peptide region; not shown: N-terminal Flag tag from vector pFLAG-myc-CMV-19 (Sigma)
T1 sequence: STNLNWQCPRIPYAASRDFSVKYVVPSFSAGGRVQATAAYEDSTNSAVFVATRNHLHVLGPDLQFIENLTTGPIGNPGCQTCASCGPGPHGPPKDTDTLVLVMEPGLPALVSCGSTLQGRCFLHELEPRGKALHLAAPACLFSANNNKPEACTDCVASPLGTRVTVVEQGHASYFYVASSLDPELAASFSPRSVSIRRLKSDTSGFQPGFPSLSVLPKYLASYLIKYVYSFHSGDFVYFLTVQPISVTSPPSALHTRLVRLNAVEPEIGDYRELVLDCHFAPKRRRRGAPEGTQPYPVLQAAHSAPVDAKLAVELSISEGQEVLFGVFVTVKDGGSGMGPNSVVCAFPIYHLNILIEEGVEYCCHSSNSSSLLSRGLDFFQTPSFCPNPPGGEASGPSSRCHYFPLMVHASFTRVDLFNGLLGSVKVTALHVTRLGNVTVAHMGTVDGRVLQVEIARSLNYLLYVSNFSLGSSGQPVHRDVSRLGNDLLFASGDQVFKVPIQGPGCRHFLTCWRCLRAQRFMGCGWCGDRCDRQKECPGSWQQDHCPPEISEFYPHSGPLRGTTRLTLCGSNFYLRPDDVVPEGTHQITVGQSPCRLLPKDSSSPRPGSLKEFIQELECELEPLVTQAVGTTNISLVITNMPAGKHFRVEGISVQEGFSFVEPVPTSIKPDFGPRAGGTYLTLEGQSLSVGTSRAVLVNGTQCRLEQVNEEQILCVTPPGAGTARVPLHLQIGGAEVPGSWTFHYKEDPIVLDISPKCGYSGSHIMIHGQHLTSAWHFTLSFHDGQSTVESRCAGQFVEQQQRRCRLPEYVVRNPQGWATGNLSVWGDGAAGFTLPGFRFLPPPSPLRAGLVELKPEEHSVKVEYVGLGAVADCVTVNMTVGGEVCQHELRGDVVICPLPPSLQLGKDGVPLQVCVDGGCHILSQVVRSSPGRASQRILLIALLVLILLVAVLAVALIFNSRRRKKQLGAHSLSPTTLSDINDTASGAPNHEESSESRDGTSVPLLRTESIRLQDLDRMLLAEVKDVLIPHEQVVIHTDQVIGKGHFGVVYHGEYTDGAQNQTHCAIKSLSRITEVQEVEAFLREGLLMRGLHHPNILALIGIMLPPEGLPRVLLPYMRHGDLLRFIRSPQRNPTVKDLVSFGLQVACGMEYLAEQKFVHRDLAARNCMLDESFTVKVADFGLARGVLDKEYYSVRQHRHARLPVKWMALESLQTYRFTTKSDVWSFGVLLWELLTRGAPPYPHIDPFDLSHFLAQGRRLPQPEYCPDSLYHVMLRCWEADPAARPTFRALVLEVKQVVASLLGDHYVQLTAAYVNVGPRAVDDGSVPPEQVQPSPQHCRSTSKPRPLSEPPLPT


Molecular target: T1, mouse MST1R with N-terminal Flag tag, …
Assay: flow cytometry on HEK293T cells transfected with Flag-tagged mouse MST1R (expression shown by αFlag), FITC-labeled secondary antibody
Method: Cells (5×10⁵ cells/well) were incubated with Fab or IgG antibodies at the indicated concentrations in 50 μl FACS buffer (PBS, 5% FCS) for 60 min at 4° C. in round bottom 96-well culture plates (Corning). Cells were washed twice and then incubated with Fluorescein Isothiocyanate (FITC) conjugated detection antibody for 30 min at 4° C. Cells were washed again, resuspended in 0.3 ml FACS buffer and then analyzed by flow cytometry in a Cytomics FC500 (Beckman Coulter, Inc.). Data were analysed via FlowJo software (Tomy digital biology Co., Ltd.). Polyclonal goat anti-hMSP R IgG (R&D systems) or anti-FLAG M2 antibody (Sigma) was used as a positive control and MOR03207 (anti-lysozyme) antibody was used as a negative control.
FACS-analysis of MST1R ortholog-expressing cells: Human MST1R (cDNA nucleotide sequence is shown as GenBank Accession No: NM_{—}002447.2), cynomolgus monkey MST1R and mouse MST1R (cDNA nucleotide sequence is shown as GeneBank Accession No: NM_{—}009074.1) expression vector containing N-terminal Flag tag (pFLAG-myc-CMV-19, Sigma) were constructed. cDNA encoding cynomolgus monkey MST1R was amplified by PCR using cynomolgus monkey stomach cDNA as a template with forward and reverse primers having nucleotide sequences of SEQ ID NO: 34 and 35, respectively. By sequencing analysis of PCR product, the cynomolgus MST1R ORF nucleotide sequence was identified as shown in SEQ ID NO: 36. The corresponding amino acid sequence was shown in SEQ ID NO: 37. Then human, cynomolgus monkey and mouse MST1R ORF cDNA, excluding signal peptide regions, were amplified using respective forward and reverse primers having nucleotide sequences of SEQ ID NO: 38 and 39 (human), 40 and 41 (cynomolgus monkey), and 42 and 43 (mouse) with appropriate cloning sites and then cloned into pFLAG-myc-CMV-19. An amplified human MST1R fragment encodes amino acids corresponding to GenBank Accession No: NP_{—}002438.2 (SEQ ID NO: 45). A Mouse MST1R fragment encodes amino acids corresponding to GenBank Accession No: NP_{—}033100.1 (SEQ ID NO: 47) except for those amino acid differences at positions: 688 (Leu to Pro), 713 (Ile to Val), 714 (Ala to Gly) and 719 (Ala to Val). These expression vectors were transfected into HEK293T cells. For FACS-analysis, cells were incubated with 2 μg/ml primary antibodies followed by incubation with FITC-labeled secondary antibody as described above.

Binder | binding result
MOR07923 (human IgG1) (antibody, V domains shown) VH: QVQLVESGGGLVQPGGSLRLSCAASGFTFNSYSMSWVRQAPGKGLEWVSYISSRSSTTYYADSVKGRFTISRDNSKNTLYLQMNSLRAEDTAVYYCARGYFHGMDYWGQGTLVTVSS VL: DIVLTQSPATLSLSPGERATLSCRASQSVSFDYLGWYQQKPGQAPRLLIYGASNRATGVPARFSGSGSGTDFTLTISSLEPEDFATYYCFQYLIVPFTFGQGTKVEIKR | no binding (tested: 2 µg/ml)
MOR07926 (human IgG1) (antibody, V domains shown) VH: QVQLVESGGGLVQPGGSLRLSCAASGFTFNSYSMSWVRQAPGKGLEWVSYISSRSSTTYYADSVKGRFTISRDNSKNTLYLQMNSLRAEDTAVYYCARGYFHGMDYWGQGTLVTVSS VL: DIVLTQSPATLSLSPGERATLSCRASQSVSFDYLGWYQQKPGQAPRLLIYGASNRATGVPARFSGSGSGTDFTLTISSLEPEDFATYYCFQALIMPFTFGQGTKVEIKR | no binding (tested: 2 µg/ml)
MOR07692 (human IgG1) (antibody, V domains shown) VH: QVQLVESGGGLVQPGGSLRLSCAASGFTFNSYSMSWVRQAPGKGLEWVSYISSRSSTTYYADSVKGRFTISRDNSKNTLYLQMNSLRAEDTAVYYCARGYFHGMDYWGQGTLVTVSS VL: DIVLTQSPATLSLSPGERATLSCRASQSVSFDYLGWYQQKPGQAPRLLIYGASNRATGVPARFSGSGSGTDFTLTISSLEPEDFATYYCQQYYNMPYTFGQGTKVEIKR | no binding (tested: 2 µg/ml)
MOR07925 (human IgG1) (antibody, V domains shown) VH: QVQLVESGGGLVQPGGSLRLSCAASGFTFNSYSMSWVRQAPGKGLEWVSYISSRSSTTYYADSVKGRFTISRDNSKNTLYLQMNSLRAEDTAVYYCARGYFHGMDYWGQGTLVTVSS VL: DIVLTQSPATLSLSPGERATLSCRASQSVSFDYLGWYQQKPGQAPRLLIYGASNRATGVPARFSGSGSGTDFTLTISSLEPEDFATYYCLQYFNPPHTFGQGTKVEIKR | no binding (tested: 2 µg/ml)
MOR07924 (human IgG1) (antibody, V domains shown) VH: QVQLVESGGGLVQPGGSLRLSCAASGFTFNSYSMSWVRQAPGKGLEWVSYISSRSSTTYYADSVKGRFTISRDNSKNTLYLQMNSLRAEDTAVYYCARGYFHGMDYWGQGTLVTVSS VL: DIVLTQSPATLSLSPGERATLSCRASQSVSFDYLGWYQQKPGQAPRLLIYGASNRATGVPARFSGSGSGTDFTLTISSLEPEDFATYYCQQYNINPFTFGQGTKVEIKR | no binding (tested: 2 µg/ml)

— US20120034215A1 (Daiichi Sankyo, published 2012)
